Consider 2 variants from IntAct's records for PubMed 19955427.

The labels stand for the following.
B1: Protein phosphatase 2C 37 (Arabidopsis thaliana (Mouse-ear cress)), P49598 (parent)
chain: MAGICCGVVGETEPAAPVDSTSRASLRRRLDLLPSIKIVADSAVAPPLENCRKRQKRETVVLSTLPGNLDLDSNVRSENKKARSAVTNSNSVTEAESFFSDVPKIGTTSVCGRRRDMEDAVSIHPSFLQRNSENHHFYGVFDGHGCSHVAEKCRERLHDIVKKEVEVMASDEWTETMVKSFQKMDKEVSQRECNLVVNGATRSMKNSCRCELQSPQCDAVGSTAVVSVVTPEKIIVSNCGDSRAVLCRNGVAIPLSVDHKPDRPDELIRIQQAGGRVIYWDGARVLGVLAMSRAIGDNYLKPYVIPDPEVTVTDRTDEDECLILASDGLWDVVPNETACGVARMCLRGAGAGDDSDAAHNACSDAALLLTKLALARQSSDNVSVVVVDLRKRRNNQASS
partner: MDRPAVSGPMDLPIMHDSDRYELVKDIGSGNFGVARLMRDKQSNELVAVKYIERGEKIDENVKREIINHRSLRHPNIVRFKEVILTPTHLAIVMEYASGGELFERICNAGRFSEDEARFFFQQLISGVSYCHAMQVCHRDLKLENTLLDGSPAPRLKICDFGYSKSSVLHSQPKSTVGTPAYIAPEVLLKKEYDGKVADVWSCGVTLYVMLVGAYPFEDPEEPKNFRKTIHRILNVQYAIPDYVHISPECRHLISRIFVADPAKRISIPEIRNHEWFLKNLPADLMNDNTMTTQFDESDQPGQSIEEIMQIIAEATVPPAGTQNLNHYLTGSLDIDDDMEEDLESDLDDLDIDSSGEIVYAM
B2: Serine/threonine-protein kinase SRK2E (Arabidopsis thaliana (Mouse-ear cress)), Q940H6 (parent)
chain: B1 partner
partner: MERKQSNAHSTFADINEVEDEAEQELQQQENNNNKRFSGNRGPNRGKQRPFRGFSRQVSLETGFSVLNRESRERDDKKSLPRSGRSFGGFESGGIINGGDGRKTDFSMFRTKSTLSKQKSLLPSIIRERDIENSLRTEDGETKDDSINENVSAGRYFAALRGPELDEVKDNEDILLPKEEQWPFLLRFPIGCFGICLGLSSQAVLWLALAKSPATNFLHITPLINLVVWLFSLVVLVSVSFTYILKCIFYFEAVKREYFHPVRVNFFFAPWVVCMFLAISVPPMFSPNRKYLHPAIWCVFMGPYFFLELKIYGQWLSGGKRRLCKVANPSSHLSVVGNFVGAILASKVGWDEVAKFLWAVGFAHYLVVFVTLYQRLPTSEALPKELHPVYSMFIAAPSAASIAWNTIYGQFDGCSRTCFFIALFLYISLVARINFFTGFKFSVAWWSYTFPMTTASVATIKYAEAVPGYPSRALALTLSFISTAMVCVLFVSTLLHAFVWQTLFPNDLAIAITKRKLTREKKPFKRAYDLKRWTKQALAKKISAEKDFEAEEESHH

The first experiment covers variants of B1. Particulars: with srk2e_arath SRK2E.
MAGICCGVVGETEPAAPVDSTSRASLRRRLDLLPSIKIVADSAVAPPLENCRKRQKRETVVLSTLPGNLDLDSNVRSENKKARSAVTNSNSVTEAESFFSDVPKIGTTSVCGRRRDMEDAVSIHPSFLQRNSENHHFYDVFDGHDCSHVAEKCRERLHDIVKKEVEVMASDEWTETMVKSFQKMDKEVSQRECNLVVNGATRSMKNSCRCELQSPQCDAVGSTAVVSVVTPEKIIVSNCGDSRAVLCRNGVAIPLSVDHKPDRPDELIRIQQAGGRVIYWDGARVLGVLAMSRAIGDNYLKPYVIPDPEVTVTDRTDEDECLILASDGLWDVVPNETACGVARMCLRGAGAGDDSDAAHNACSDAALLLTKLALARQSSDNVSVVVVDLRKRRNNQASS [G139D;G145D]: the “effect of a mutation on the interaction” value is listed as “disrupting interaction”.

Another experiment covers variants of B2. Particulars: with slac1_arath SLAC1, Q9LD83.
For MDRPAVSGPMDLPIMHDSDRYELVKDIGSGNFGVARLMRDKQSNELVAVNYIERGEKIDENVKREIINHRSLRHPNIVRFKEVILTPTHLAIVMEYASGGELFERICNAGRFSEDEARFFFQQLISGVSYCHAMQVCHRDLKLENTLLDGSPAPRLKICDFGYSKSSVLHSQPKSTVGTPAYIAPEVLLKKEYDGKVADVWSCGVTLYVMLVGAYPFEDPEEPKNFRKTIHRILNVQYAIPDYVHISPECRHLISRIFVADPAKRISIPEIRNHEWFLKNLPADLMNDNTMTTQFDESDQPGQSIEEIMQIIAEATVPPAGTQNLNHYLTGSLDIDDDMEEDLESDLDDLDIDSSGEIVYAM [K50N], the “effect of a mutation on the interaction” value is reported as “disrupting interaction”.
